Measured values taken from patent US20240417446A1 (US Dept. of Health and Human Services, published 2024).

B1: NCI-CoV-CLA2 (VHH)
VHH: QVQLVESGGGSVQPGGSLRLSCAVSGYTSSSYCFGWFRQAPGKDREGIIAMEPGNTYTAGAVKGRFTISRDNAKNMVYLQMNSLKPDDTAMYYCAASPYPGTWLNPDLFDTWGQGTQVTVSS
B2: NCI-CoV-S2A9 (VNAR)
VNAR: ARVDQTPRSVTKETGESLTINCVLRDASYALGRTCWYRKKSGSTNEESISKGGRYVETVNSGSKSFSLRINDLTVEDGGTYRCGVSTPWSCDYGPLCFYAACGDGTVVTVN
B3: NCI-CoV-S2G8 (VNAR)
VNAR: ARVDQTPQTITKETGESLTINCVLRDSNCPLSNTYWYRKKSGSTNEESISKGGRYVETVNSGSKSFSLRINDLTVEDSGTYRCKVRTHWSICWEMGLEPNYDVYGGGTVVTVN
B4: NCI-CoV-CG2G2 (VHH)
VHH: AVQLVESGGGSVPPGGSLTLSCTVSDNIFRTYAVGWFRQAPEKRCQWIATLNADESTEYNVAVTGRFTISRDNSGRSVYLQMDNLNSEDTAIYYCASLARKWSCHDSWGRGTQVTVSS
B5: NCI-CoV-CGH3 (VHH)
VHH: AVQLVESGGGLVQPGGSLRLSCAASGFTFSSYAMGWVRQAPGKGLEWISAINSGGDIRYYADSVKGRFTISRDNAKNTLYLQMNSLKPEDTAVYYCATDDEILSYGLGTSFDYWGQGTQVTVSS
B6: NCI-CoV-S3A10 (VNAR)
VNAR: ARVDQTPRSVTKETGESLTINCVLRDASYALGSTCWYRKKSGSTNEESISKGGRYVETVNSGSKSFSLRINDLTVEDGGTYRCGRIQNTKAVLLPCVYAACGDGTVVTVN
B7: NCI-CoV-CGF10 (VHH)
VHH: AVQLVESGGGLVQPGGSLRLSCAASGFTFSSYGMHWVRQAPGKGLERVAGINWDGSNSYYTETVKGRFTISRDNAKNTAYLQMNSLKPEDTAMYYCRTLILDSDCDPGSTYRYAWGQGTQVTVSS
B8: NCI-CoV-S4A9 (VNAR)
VNAR: ARVDQTPRSVTKETGESLTINCVLRDASYALGSTCWYRKKSGSTNEESISKGGRYVETVNSGSKSFSLRINDLTVEDGGTYRCGVQSRWGAVPKLCSNYAACGDGTAVTVN
B9: NCI-CoV-CL3H4 (VHH)
VHH: DVQLVESGGGAVKPGGSLTLTCTVQEGSRNCVGWFRQGSGKDRQAVAMINGNGGTTNYDDRVKGRFQISRDGSLVHLRMNDVKLGDTDIYYCRQGQTYDCWGGTWTDSGWGQGTQVTVSS

Key:
[1] = biological target: T1, SARS-CoV-2 spike trimer (40589-V08H4) (SARS-CoV-2, UniProt P0DTC2 14-1213); assay: ELISA, A450, nanobody at 10ug/mL, Spike Trimer coated at 2 ug/mL
T1 construct: extracellular domain

[2] = biological target: SARS-CoV-2 Alpha variant spike protein on pseudovirus (SARS-CoV-2, UniProt P0DTC2 14-1273); assay: cell-based or functional assay
[3] = biological target: SARS-CoV-2 Omicron BA.4/BA.5 variant spike protein on pseudovirus (SARS-CoV-2); assay: cell-based or functional assay
[4] = biological target: SARS-CoV-2 Lambda variant spike protein on pseudovirus (SARS-CoV-2, UniProt P0DTC2 14-1273); assay: cell-based or functional assay
[5] = biological target: SARS-CoV-2 Omicron BA.1 variant spike protein on pseudovirus (SARS-CoV-2); assay: cell-based or functional assay
[6] = biological target: SARS-CoV-2 Omicron BA.2 variant spike protein on pseudovirus (SARS-CoV-2); assay: cell-based or functional assay
[7] = biological target: SARS-CoV-2 Gamma variant spike protein on pseudovirus (SARS-CoV-2, UniProt P0DTC2 14-1273); assay: cell-based or functional assay

| Binder | ELISA (A450) at 10ug/mL [1] | further results |
| --- | --- | --- |
| B1 | 0.66 |  |
| B2 | 0.53 | IC50 for neutralizing pseudovirus [2]: 1820 nM; IC50 for neutralizing pseudovirus [3]: 3730 nM; IC50 for neutralizing pseudovirus [4]: 4570 nM; IC50 for neutralizing pseudovirus [5]: 2250 nM; IC50 for neutralizing pseudovirus [6]: 2250 nM; IC50 for neutralizing pseudovirus [7]: 1800 nM |
| B3 | 0.61 |  |
| B4 | 2.7 |  |
| B5 | 0.14 |  |
| B6 | 1.34 |  |
| B7 | 1.2 |  |
| B8 | 1.43 |  |
| B9 | 0.3 |  |
